B1: Ankyrin repeat domain-containing protein 49 (Homo sapiens), Q8WVL7 (parent)
chain: MEKEKGNDDGIPDQENSLDFSEHFNQLELLETHGHLIPTGTQSLWVGNSDEDEEQDDKNEEWYRLQEKKMEKDPSRLLLWAAEKNRLTTVRRLLSEKATHVNTRDEDEYTPLHRAAYSGHLDIVQELIAQGADVHAVTVDGWTPLHSACKWNNTRVASFLLQHDADINAQTKGLLTPLHLAAGNRDSKDTLELLLMNRYVKPGLKNNLEETAFDIARRTSIYHYLFEIVEGCTNSSPQS
B2: Cyclin-dependent kinase inhibitor 2A (Homo sapiens), P42771 (parent)
chain: MEPAAGSSMEPSADWLATAAARGRVEEVRALLEAGALPNAPNSYGRRPIQVMMMGSARVAELLLLHGAEPNCADPATLTRPVHDAAREGFLDTLVVLHRAGARLDVRDAWGRLPVDLAEELGHRDVARYLRAAAGGTRGSNHARIDAAEGPSDIPD
B3: NF-kappa-B inhibitor alpha (Gallus gallus (Chicken)), Q91974 (parent)
chain: MLSAHRPAEPPAVEGCEPPRKERQGGLLPPDDRHDSGLDSMKEEEYRQLVRELEDIRLQPREPPARPHAWAQQLTEDGDTFLHLAIIHEEKALSLEVIRQAAGDAAFLNFQNNLSQTPLHLAVITDQAEIAEHLLKAGCDLDVRDFRGNTPLHIACQQGSLRSVSVLTQHCQPHHLLAVLQATNYNGHTCLHLASIQGYLAVVEYLLSLGADVNAQEPCNGRTALHLAVDLQNSDLVSLLVKHGPDVNKVTYQGYSPYQLTWGRDNASIQEQLKLLTTADLQILPESEDEESSESEPEFTEDELMYDDCCIGGRQLTF

Variants of: B1
Conditions: with ran_human RAN

| Variant | effect of a mutation on the interaction |
| --- | --- |
| G183C | increasing interaction strength |
| D107C;K150C;G183C | increasing interaction strength |
| K150I | increasing interaction strength |
| D107I;K150I | increasing interaction strength |
| D107C;K150C | increasing interaction strength |

Variants of: B2
Conditions: with ran_human RAN

| Variant | effect of a mutation on the interaction |
| --- | --- |
| R87P | disrupting interaction strength |
| M53I | disrupting interaction strength |

Variants of: B2
Conditions: with cdk4_human CDK4, P11802
Chain of cdk4_human CDK4, P11802 (P11802 whole entry): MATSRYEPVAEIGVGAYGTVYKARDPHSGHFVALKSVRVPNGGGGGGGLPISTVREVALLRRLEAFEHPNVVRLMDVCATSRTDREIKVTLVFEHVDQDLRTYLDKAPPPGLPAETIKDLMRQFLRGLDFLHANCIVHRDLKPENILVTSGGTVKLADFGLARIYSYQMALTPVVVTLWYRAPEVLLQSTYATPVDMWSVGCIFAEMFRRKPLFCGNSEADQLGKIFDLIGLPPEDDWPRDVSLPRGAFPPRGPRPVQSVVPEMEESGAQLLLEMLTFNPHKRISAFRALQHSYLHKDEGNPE

| Variant | effect of a mutation on the interaction |
| --- | --- |
| R87P | increasing interaction strength |
| M53I | increasing interaction strength |

Variants of: B2
Conditions: with ccnd1_human CCND1, P24385
Chain of ccnd1_human CCND1, P24385 (P24385 whole entry): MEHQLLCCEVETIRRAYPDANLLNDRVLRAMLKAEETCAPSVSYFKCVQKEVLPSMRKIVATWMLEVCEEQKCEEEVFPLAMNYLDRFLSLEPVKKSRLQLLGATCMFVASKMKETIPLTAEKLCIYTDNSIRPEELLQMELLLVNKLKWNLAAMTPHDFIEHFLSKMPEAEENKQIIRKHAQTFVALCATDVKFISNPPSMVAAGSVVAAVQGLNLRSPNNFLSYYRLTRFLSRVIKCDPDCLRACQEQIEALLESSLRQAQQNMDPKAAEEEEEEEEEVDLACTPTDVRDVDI

| Variant | effect of a mutation on the interaction |
| --- | --- |
| R87P | disrupting interaction strength |
| M53I | increasing interaction strength |

Variants of: B2
Conditions: with cdk4_human CDK4, P11802
Remark: another data set of the same source

| Variant | effect of a mutation on the interaction |
| --- | --- |
| R87P | decreasing interaction strength |

Variants of: B2
Conditions: with cdk6_human CDK6, Q00534
Chain of cdk6_human CDK6, Q00534 (Q00534 whole entry): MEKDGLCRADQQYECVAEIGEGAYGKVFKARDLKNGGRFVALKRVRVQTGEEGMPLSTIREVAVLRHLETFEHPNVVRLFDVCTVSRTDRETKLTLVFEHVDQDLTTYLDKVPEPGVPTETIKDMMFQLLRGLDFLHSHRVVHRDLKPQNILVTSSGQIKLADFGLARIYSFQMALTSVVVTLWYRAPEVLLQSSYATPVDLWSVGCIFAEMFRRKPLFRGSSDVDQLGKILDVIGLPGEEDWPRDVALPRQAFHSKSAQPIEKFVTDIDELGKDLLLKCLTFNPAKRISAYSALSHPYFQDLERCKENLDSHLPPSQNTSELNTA

| Variant | effect of a mutation on the interaction |
| --- | --- |
| R87P | decreasing interaction strength |

Variants of: B2
Conditions: with cdk6_human CDK6, Q00534
Remark: another data set of the same source

| Variant | effect of a mutation on the interaction |
| --- | --- |
| R87P | increasing interaction strength |
| M53I | increasing interaction strength |

Variants of: B2
Conditions: with ran_human RAN
Remark: another data set of the same source

| Variant | effect of a mutation on the interaction |
| --- | --- |
| R87P | increasing interaction strength |
| M53I | increasing interaction strength |

Variants of: B3
Conditions: with ran_human RAN

| Variant | effect of a mutation on the interaction |
| --- | --- |
| I124E | decreasing interaction strength |
| I124R | decreasing interaction strength |
| I124K | decreasing interaction strength |
| I124A | decreasing interaction strength |
| I124Q | decreasing interaction strength |

— IntAct's records for PubMed 24855949
